Experimental data reported in paper PMC6222095 (2018).

B1: complement factor H, double homozygous His-402/Val-62 allotype (natural protein)
chain: EDCNELPPRRNTEILTGSWSDQTYPEGTQAIYKCRPGYRSLGNVIMVCRKGEWVALNPLRKCQKRPCGHPGDTPFGTFTLTGGNVFEYGVKAVYTCNEGYQLLGEINYRECDTDGWTNDIPICEVVKCLPVTAPENGKIVSSAMEPDREYHFGQAVRFVCNSGYKIEGDEEMHCSDDGFWSKEKPKCVEISCKSPDVINGSPISQKIIYKENERFQYKCNMGYEYSERGDAVCTESGWRPLPSCEEKSCDNPYIPNGDYSPLRIKHRTGDEITYQCRNGFYPATRGNTAKCTSTGWIPAPRCTLKPCDYPDIKHGGLYHENMRRPYFPVAVGKYYSYYCDEHFETPSGSYWDHIHCTQDGWSPAVPCLRKCYFPYLENGYNQNHGRKFVQGKSIDVACHPGYALPKAQTTVTCMENGWSPTPRCIRVKTCSKSSIDIENGFISESQYTYALKEKAKYQCKLGYVTADGETSGSITCGKDGWSAQPTCIKSCDIPVFMNARTKNDFTWFKLNDTLDYECHDGYESNTGSTTGSIVCGYNGWSDLPICYERECELPKIDVHLVPDRKKDQYKVGEVLKFSCKPGFTIVGPNSVQCYHFGLSPDLPICKEQVQSCGPPPELLNGNVKEKTKEEYGHSEVVEYYCNPRFLMKGPNKIQCVDGEWTTLPVCIVEESTCGDIPELEHGWAQLSSPPYYYGDSVEFNCSESFTMIGHRSITCIHGVWTQLPQCVAIDKLKKCKSSNLIILEEHLKNKKEFDHNSNIRYRCRGKEGWIHTVCINGRWDPEVNCSMAQIQLCPPPPQIPNSHNMTTTLNYRDGEKVSVLCQENYLIQEGEEITCKDGRWQSIPLCVEKIPCSQPPQIEHGTINSSRSSQESYAHGTKLSYTCEGGFRISEENETTCYMGKWSSPPQCEGLPCKSPPEISHGVVAHMSDSYQYGEEVTYKCFEGFGIDGPAIAKCLGEKWSHPPSCIKTDCLSLPSFENAIPMGEKKDVYKAGEQVTYTCATYYKMDGASNVTCINSRWTGRPTCRDTSCVNPPTVQNAYIVSRQMSKYPSGERVRYQCRSPYEMFGDEEVMCLNGNWTEPPQCKDSTGKCGPPPPIDNGDITSFPLSVYAPASSVEYQCQNLYQLEGNKRITCRNGQWSEPPKCLHPCVISREIMENYNIALRWTAKQKLYSRTGESVEFVCKRGYRLSSRSHTLRTTCWDGKLEYPTCAKR
modifications: eight biantennary disialylated N-glycans; sites as printed: Asn-511, Asn-700, Asn-784, Asn-804, Asn-864, Asn-892, Asn-1011, Asn-1077

How the values were obtained:
[1] = biological target: B1; test: SPR
SPR = biological target: the molecule itself; test: SPR

Row | Binder | Kd [1] [µM] | Kd (SPR) [µM]
1 | complement factor H, homozygous Tyr-402/Val-62 allotype (natural protein, eight biantennary disialylated N-glycans; sites as printed: Asn-511, Asn-700, Asn-784, Asn-804, Asn-864, Asn-892, Asn-1011, Asn-1077) EDCNELPPRRNTEILTGSWSDQTYPEGTQAIYKCRPGYRSLGNVIMVCRKGEWVALNPLRKCQKRPCGHPGDTPFGTFTLTGGNVFEYGVKAVYTCNEGYQLLGEINYRECDTDGWTNDIPICEVVKCLPVTAPENGKIVSSAMEPDREYHFGQAVRFVCNSGYKIEGDEEMHCSDDGFWSKEKPKCVEISCKSPDVINGSPISQKIIYKENERFQYKCNMGYEYSERGDAVCTESGWRPLPSCEEKSCDNPYIPNGDYSPLRIKHRTGDEITYQCRNGFYPATRGNTAKCTSTGWIPAPRCTLKPCDYPDIKHGGLYHENMRRPYFPVAVGKYYSYYCDEHFETPSGSYWDHIHCTQDGWSPAVPCLRKCYFPYLENGYNQNYGRKFVQGKSIDVACHPGYALPKAQTTVTCMENGWSPTPRCIRVKTCSKSSIDIENGFISESQYTYALKEKAKYQCKLGYVTADGETSGSITCGKDGWSAQPTCIKSCDIPVFMNARTKNDFTWFKLNDTLDYECHDGYESNTGSTTGSIVCGYNGWSDLPICYERECELPKIDVHLVPDRKKDQYKVGEVLKFSCKPGFTIVGPNSVQCYHFGLSPDLPICKEQVQSCGPPPELLNGNVKEKTKEEYGHSEVVEYYCNPRFLMKGPNKIQCVDGEWTTLPVCIVEESTCGDIPELEHGWAQLSSPPYYYGDSVEFNCSESFTMIGHRSITCIHGVWTQLPQCVAIDKLKKCKSSNLIILEEHLKNKKEFDHNSNIRYRCRGKEGWIHTVCINGRWDPEVNCSMAQIQLCPPPPQIPNSHNMTTTLNYRDGEKVSVLCQENYLIQEGEEITCKDGRWQSIPLCVEKIPCSQPPQIEHGTINSSRSSQESYAHGTKLSYTCEGGFRISEENETTCYMGKWSSPPQCEGLPCKSPPEISHGVVAHMSDSYQYGEEVTYKCFEGFGIDGPAIAKCLGEKWSHPPSCIKTDCLSLPSFENAIPMGEKKDVYKAGEQVTYTCATYYKMDGASNVTCINSRWTGRPTCRDTSCVNPPTVQNAYIVSRQMSKYPSGERVRYQCRSPYEMFGDEEVMCLNGNWTEPPQCKDSTGKCGPPPPIDNGDITSFPLSVYAPASSVEYQCQNLYQLEGNKRITCRNGQWSEPPKCLHPCVISREIMENYNIALRWTAKQKLYSRTGESVEFVCKRGYRLSSRSHTLRTTCWDGKLEYPTCAKR | > 40 | –
2 | B1 | – | > 40
